# Measurements from article PMC3889205 (FEBS letters, 2013).
# Like-named read-outs stand apart in the source and are kept apart here.
# T1: Cy3-labeled recombinant rat hepatocyte nuclear factor 4α (rat, UniProt P22449 1-474, Cy3 fluorophore label (site not stated))
# T1 sequence (looked up): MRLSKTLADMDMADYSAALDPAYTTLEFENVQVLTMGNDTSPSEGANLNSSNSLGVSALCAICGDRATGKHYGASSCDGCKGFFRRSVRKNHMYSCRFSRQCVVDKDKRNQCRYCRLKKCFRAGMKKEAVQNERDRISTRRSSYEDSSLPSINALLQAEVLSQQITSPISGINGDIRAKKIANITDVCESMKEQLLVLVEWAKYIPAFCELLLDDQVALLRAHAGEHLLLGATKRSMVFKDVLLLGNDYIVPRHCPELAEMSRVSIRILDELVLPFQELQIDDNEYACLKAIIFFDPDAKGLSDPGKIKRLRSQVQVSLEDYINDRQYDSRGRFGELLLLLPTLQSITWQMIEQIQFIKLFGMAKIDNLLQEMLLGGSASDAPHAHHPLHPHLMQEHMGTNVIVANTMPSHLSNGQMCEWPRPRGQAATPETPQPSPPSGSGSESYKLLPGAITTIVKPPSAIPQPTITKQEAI
# Assays:
# Assay in all cases: FRET or BRET
# [1] = target: T2, Cy3-labeled β-galactosidase (UniProt P00722 1-1024 = β-galactosidase, Cy3 fluorophore label (site not stated))
# [2] = target: T1, Cy3-labeled recombinant rat hepatocyte …
# [3] = target: T2, Cy3-labeled β-galactosidase; remark: listed apart in the source
# [4] = target: T1, Cy3-labeled recombinant rat hepatocyte …; remark: listed apart in the source
# T2 sequence (P00722 whole entry): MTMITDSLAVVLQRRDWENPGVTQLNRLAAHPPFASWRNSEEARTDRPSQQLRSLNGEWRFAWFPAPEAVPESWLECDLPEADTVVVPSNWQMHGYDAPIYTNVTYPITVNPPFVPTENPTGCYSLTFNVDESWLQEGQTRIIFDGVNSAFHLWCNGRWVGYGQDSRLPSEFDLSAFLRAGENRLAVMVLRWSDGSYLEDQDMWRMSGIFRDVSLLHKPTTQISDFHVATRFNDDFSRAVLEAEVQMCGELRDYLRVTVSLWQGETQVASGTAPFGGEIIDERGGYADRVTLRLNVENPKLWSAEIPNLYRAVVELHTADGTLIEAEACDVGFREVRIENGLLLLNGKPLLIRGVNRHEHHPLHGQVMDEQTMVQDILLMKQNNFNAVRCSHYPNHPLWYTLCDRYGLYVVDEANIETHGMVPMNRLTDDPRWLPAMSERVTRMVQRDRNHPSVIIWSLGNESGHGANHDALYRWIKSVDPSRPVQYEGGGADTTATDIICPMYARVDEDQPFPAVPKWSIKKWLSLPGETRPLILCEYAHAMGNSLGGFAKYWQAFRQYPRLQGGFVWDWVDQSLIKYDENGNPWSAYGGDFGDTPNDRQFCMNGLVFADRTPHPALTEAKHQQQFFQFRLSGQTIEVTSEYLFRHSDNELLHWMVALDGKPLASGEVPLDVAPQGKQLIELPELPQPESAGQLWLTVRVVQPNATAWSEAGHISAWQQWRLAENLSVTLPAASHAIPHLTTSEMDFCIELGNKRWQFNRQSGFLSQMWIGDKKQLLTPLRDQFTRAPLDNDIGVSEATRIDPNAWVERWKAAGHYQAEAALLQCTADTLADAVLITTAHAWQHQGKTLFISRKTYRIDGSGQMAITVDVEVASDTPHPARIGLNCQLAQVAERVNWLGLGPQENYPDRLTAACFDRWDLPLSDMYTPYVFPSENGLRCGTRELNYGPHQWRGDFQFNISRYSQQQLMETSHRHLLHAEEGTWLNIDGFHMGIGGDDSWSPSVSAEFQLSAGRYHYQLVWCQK
binder,measurement,setting,value
"Cy5-labeled recombinant rat liver-type fatty acid binding protein (natural protein, UniProt P02692 1-127, looked up, Cy5 fluorophore label (site not stated)) MNFSGKYQVQSQENFEPFMKAMGLPEDLIQKGKDIKGVSEIVHEGKKVKLTITYGSKVIHNEFTLGEECELETMTGEKVKAVVKMEGDNKMVTTFKGIKSVTEFNGDTITNTMTLGDIVYKRVSKRI",Kd,[1],> 10000 nM
same,Kd,[2],250 nM
same,Kd,[3],> 10000 nM
same,Kd,[4],300 nM
